Target: thrombin
Assay: cell-based or functional assay

Chain of GST (Glutathion-S-transferase) expressed from pGEX-4T-3 (P08515 whole entry): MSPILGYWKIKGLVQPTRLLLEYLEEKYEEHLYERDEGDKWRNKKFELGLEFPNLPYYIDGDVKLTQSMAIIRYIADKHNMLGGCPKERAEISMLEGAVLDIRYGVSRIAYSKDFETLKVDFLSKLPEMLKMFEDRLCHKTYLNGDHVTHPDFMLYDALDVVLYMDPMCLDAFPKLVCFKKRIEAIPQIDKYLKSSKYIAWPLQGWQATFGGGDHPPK

Row | Substance | thrombin activity, delta Abs (405 nm)/2 min, Test 1; sample C: pH 2.0 + 2 ug chymosin (Abs (405 nm)/2 min) | thrombin activity, delta Abs (405 nm)/2 min, Test 2; sample C: pH 2.0 + 2 ug chymosin (Abs (405 nm)/2 min) | thrombin activity, delta Abs (405 nm)/2 min, Test 1; sample E: pH 4.5 + 2 ug chymosin (Abs (405 nm)/2 min) | thrombin activity, delta Abs (405 nm)/2 min, Test 2; sample E: pH 4.5 + 2 ug chymosin (Abs (405 nm)/2 min) | also measured
1 | Hirudin 2 ug (positive control of Table 1) |  |  |  |  | thrombin activity, delta Abs (405 nm)/2 min, Test 1; Hirudin 2 ug (Abs (405 nm)/2 min): 0.0001; thrombin activity, delta Abs (405 nm)/2 min, Test 2; Hirudin 2 ug (Abs (405 nm)/2 min): 0.0001
2 | cleavage product of GST-Pro-Hirudin treated at pH 2.0 with 2 ug chymosin | 0.066 | 0.07 |  |  | 
3 | GST (Glutathion-S-transferase) expressed from pGEX-4T-3 (from UniProt P08515 1-218) | 0.063 | 0.073 | 0.087 | 0.087 | thrombin activity, delta Abs (405 nm)/2 min, Test 1; sample A: supernatant + water (Abs (405 nm)/2 min): 0.087; thrombin activity, delta Abs (405 nm)/2 min, Test 1; sample B: pH 2.0 (Abs (405 nm)/2 min): 0.082; thrombin activity, delta Abs (405 nm)/2 min, Test 1; sample D: pH 4.5 (Abs (405 nm)/2 min): 0.087; thrombin activity, delta Abs (405 nm)/2 min, Test 2; sample A: supernatant + water (Abs (405 nm)/2 min): 0.082; thrombin activity, delta Abs (405 nm)/2 min, Test 2; sample B: pH 2.0 (Abs (405 nm)/2 min): 0.073; thrombin activity, delta Abs (405 nm)/2 min, Test 2; sample D: pH 4.5 (Abs (405 nm)/2 min): 0.086
4 | hirudin released from GST-Pro-Hirudin by treatment at pH 4.5 with 2 ug chymosin (from UniProt P01050 1-65) |  |  | 0.0002 | 0.0001 | 

Source: patent publication US20030166162A1
